Assay in all cases: purified protein
Substrate in data set [1]: O=C(O)[C@@H]1C[C@H](O)CN1
Type of data set: biochemical, Homo sapiens. The note with it: 1.5 mM NAD+, 50 mM Tris-HCl pH 8.0, 30 °C.

Substrate in data set [2]: C[C@H](O)[C@@H](O)CC(=O)C(=O)O
Type of data set: biochemical, Homo sapiens. The note with it: 1.5 mM NAD+, 50 mM Tris-HCl pH 8.0, 30 °C.

Substrate in data set [3]: C[C@@H](O)CC(=O)O
Type of data set: biochemical, Homo sapiens. The conditions noted are these: 1.5 mM NAD+, 50 mM Tris-HCl pH 8.0, 30 °C, substrate range 1-10 mM (Km extrapolated).

Substrate in data set [4]: NC(=O)c1ccc[n+]([C@@H]2O[C@H](COP(=O)(O)OP(=O)(O)OC[C@H]3O[C@@H](n4cnc5c(N)ncnc54)[C@H](OP(=O)(O)O)[C@@H]3O)[C@@H](O)[C@H]2O)c1
Type of data set: biochemical, Herbaspirillum huttiense. The note with it: 10 mM substrate, 50 mM Tris-HCl pH 8.0, 30 °C, varied: cofactor.

Substrate in data set [5]: O=C(O)C(=O)C[C@H](O)[C@H](O)CO
Type of data set: biochemical, Herbaspirillum huttiense. The note with it: 1.5 mM NAD+, 50 mM Tris-HCl pH 8.0, 30 °C.

Substrate in data set [6]: O=C(O)[C@@H]1C[C@@H](O)CN1
Type of data set: biochemical, Herbaspirillum huttiense. The conditions noted are these: 1.5 mM NAD+, 50 mM Tris-HCl pH 8.0, 30 °C.

Substrate in data set [7]: NC(=O)c1ccc[n+]([C@@H]2O[C@H](COP(=O)(O)OP(=O)(O)OC[C@H]3O[C@@H](n4cnc5c(N)ncnc54)[C@H](O)[C@@H]3O)[C@@H](O)[C@H]2O)c1
Type of data set: biochemical, Herbaspirillum huttiense. The note with it: 10 mM substrate, 50 mM Tris-HCl pH 8.0, 30 °C, varied: cofactor.

Substrate in data set [8]: O=C(O)C(=O)C[C@H](O)CO
Type of data set: biochemical, Herbaspirillum huttiense. The conditions noted are these: 1.5 mM NAD+, 50 mM Tris-HCl pH 8.0, 30 °C.

Substrate in data set [9]: O=C(O)[C@H]1C[C@@H](O)CN1
Type of data set: biochemical, Herbaspirillum huttiense. The conditions noted are these: 1.5 mM NAD+, 50 mM Tris-HCl pH 8.0, 30 °C, substrate range 1-10 mM (Km extrapolated).

Substrate in data set [10]: O=C(O)C(=O)C[C@H](O)[C@@H](O)CO
Type of data set: biochemical, Herbaspirillum huttiense. The conditions noted are these: 1.5 mM NAD+, 50 mM Tris-HCl pH 8.0, 30 °C.

Substrate in data set [11]: O=C(O)C(=O)C[C@@H](O)CO
Type of data set: biochemical, Herbaspirillum huttiense. The conditions noted are these: 1.5 mM NAD+, 50 mM Tris-HCl pH 8.0, 30 °C.

Substrate in data set [12]: O=C(O)[C@@H]1C[C@H](O)CN1
Type of data set: biochemical, Herbaspirillum huttiense. The note with it: 1.5 mM NAD+, 50 mM Tris-HCl pH 8.0, 30 °C.

Substrate in data set [13]: C[C@H](O)[C@@H](O)CC(=O)C(=O)O
Type of data set: biochemical, Herbaspirillum huttiense. The conditions noted are these: 1.5 mM NAD+, 50 mM Tris-HCl pH 8.0, 30 °C.

Substrate in data set [14]: C[C@@H](O)CC(=O)O
Type of data set: biochemical, Herbaspirillum huttiense. The conditions noted are these: 1.5 mM NAD+, 50 mM Tris-HCl pH 8.0, 30 °C.

One may read the Km as the substrate concentration at which the rate is half of its maximum. The term kcat denotes the number of substrate molecules converted per active site and unit of time at saturation. The term kcat/Km denotes the second-order rate constant that governs catalysis at low substrate concentration.

Residue numbers refer to the chain shown, from its start. Names and notes keep the numbering of the source.

B1: BDH2 (Homo sapiens) (protein)
chain: MGRLDGKVIILTAAAQGIGQAAALAFAREGAKVIATDINESKLQELEKYPGIQTRVLDVTKKKQIDQFANEVERLDVLFNVAGFVHHGTVLDCEEKDWDFSMNLNVRSMYLMIKAFLPKMLAQKSGNIINMSSVASSVKGVVNRCVYSTTKAAVIGLTKSVAADFIQQGIRCNCVCPGTVDTPSLQERIQARGNPEEARNDFLKRQKTGRFATAEEIAMLCVYLASDESAYVTGNPVIIDGGWSL
notes: recombinant (His)6-tagged, expressed in E. coli, purified
With B1, the Km in data set [1] is 220 ± 61 µM; in [2] it was 32.2 ± 3.3 µM; in [3], 18500 ± 2900 µM. For the same protein, the catalytic constant (kcat) is 4.88 ± 0.5 s⁻¹ in [1], 3.67 ± 0.183 s⁻¹ in data set [2] and 0.0698 ± 0.00483 s⁻¹ in [3]. For the same protein, the kcat/Km is 22800 ± 3670 M⁻¹ s⁻¹ in data set [1], 114000 ± 5830 M⁻¹ s⁻¹ in data set [2] and 3.8 ± 0.333 M⁻¹ s⁻¹ in data set [3].

B2: L-KDFDH (FucF; C785_RS13675) (Herbaspirillum huttiense subsp. putei IAM 15032) (protein)
chain: MSASTGRLAGKTVLITAAAQGIGRASTELFAREGARVIATDISKTHLEELASIAGVETHLLDVTDDDAIKALVAKVGTVDVLFNCAGYVAAGNILECDDKAWDFSFNLNAKAMFHTIRAVLPGMLAKKAGSIVNIASAASSVKGVANRFAYGASKAAVVGLTKSVAADFVSQGIRCNAICPGTIESPSLNQRISTQAKETGKSEDEVRAAFVARQPMGRIGKAEEVAALALYLASDESNFTTGSIHMIDGGWSN
notes: pQE-80L, N-terminal (His)6-tag, expressed in E. coli, Ni-NTA; homotetramer; EC 1.1.1.434
For B2, the Km in [4] was 1770 ± 300 µM; in data set [5], 6600 ± 550 µM; in [6], 2260 ± 270 µM; in [7] it was 30.2 ± 3 µM; in [8], 2580 ± 240 µM; in [9] it was 37800 ± 11500 µM. The Km in [10] came to 808 ± 73 µM; in [11] it was 5510 ± 660 µM; in data set [12], 4190 ± 350 µM; in [13] it was 115 ± 15 µM; in data set [14], 1790 ± 570 µM. Besides, the kcat in [4] was found to be 0.0678 ± 0.01 s⁻¹; in [5] it was 8.25 ± 0.35 s⁻¹; in data set [6], 0.00165 ± 0.000105 s⁻¹; in [7], 29.2 ± 1.3 s⁻¹; in [8] it was 27.5 ± 2.03 s⁻¹; in [10], 19.8 ± 1.2 s⁻¹. In addition, the kcat in data set [11] worked out at 3.37 ± 0.183 s⁻¹; in data set [12] it was 0.742 ± 0.0233 s⁻¹; in data set [13], 15 ± 0.317 s⁻¹; in [14] it was 0.00137 ± 0.000167 s⁻¹. Also, the kcat/Km in data set [4] came to 38.5 ± 1 M⁻¹ s⁻¹; in data set [5] it was 1250 ± 55 M⁻¹ s⁻¹; in data set [6] it was 0.737 ± 0.045 M⁻¹ s⁻¹; in data set [7] it was 972000 ± 58700 M⁻¹ s⁻¹; in data set [8], 10700 ± 267 M⁻¹ s⁻¹; in [10], 24700 ± 750 M⁻¹ s⁻¹. For the same protein, the kcat/Km in data set [11] amounted to 615 ± 36.7 M⁻¹ s⁻¹; in [12] it was 178 ± 10 M⁻¹ s⁻¹; in data set [13] it was 132000 ± 14000 M⁻¹ s⁻¹; in data set [14], 0.795 ± 0.137 M⁻¹ s⁻¹.

B3: L-KDFDH (FucF; C785_RS13675) (Herbaspirillum huttiense subsp. putei IAM 15032; W252M) (protein)
chain: B2 chain with W252M
notes: as for B2
For B3, in data set [13], the Km was determined as 219 ± 6 µM, the kcat was 6.62 ± 0.167 s⁻¹ and the kcat/Km is 30000 ± 83.3 M⁻¹ s⁻¹.

B4: L-KDFDH (FucF; C785_RS13675) (Herbaspirillum huttiense subsp. putei IAM 15032; D41S/I42R) (protein)
chain: B2 chain with D41S, I42R
notes: as for B2
Take B4: in data set [4], the Km turned out to be 200 ± 4 µM, the kcat was found to be 3.6 ± 0.0667 s⁻¹ and the kcat/Km turned out to be 18050 ± 83.3 M⁻¹ s⁻¹.

Values taken from publication PMC11199699.
